Experiment [1] has as its target T1, 94-kDa mouse neutral ceramidase from the soluble fraction of the liver, lacking the mucin box (mouse, UniProt Q9JHE3 75-756, limits assumed).
T1 construct: The whole entry is named here, and the true chain is shorter at the N-terminus; also called 94-kDa CDase; enzyme in the soluble fraction of the liver
Kind of experiment: lectin blot with HRP-labeled PNA lectin after immunoprecipitation from mouse liver soluble fraction.

The target of experiment [2] is T2, mucin box-deleted mutant of rat neutral ceramidase (delta-mucin CDase), C-terminal myc tag (rat, UniProt Q91XT9 1-761).
T2 construct: Expressed in HEK293 cells, immunoprecipitated and blotted; also called Δmucin; Δmucin CDase; not shown: C-terminal Myc-His tag from vector pcDNA3.1/Myc-his(+)
T2 sequence (Q91XT9 other isoform, or with tags, fused parts or gaps mutant): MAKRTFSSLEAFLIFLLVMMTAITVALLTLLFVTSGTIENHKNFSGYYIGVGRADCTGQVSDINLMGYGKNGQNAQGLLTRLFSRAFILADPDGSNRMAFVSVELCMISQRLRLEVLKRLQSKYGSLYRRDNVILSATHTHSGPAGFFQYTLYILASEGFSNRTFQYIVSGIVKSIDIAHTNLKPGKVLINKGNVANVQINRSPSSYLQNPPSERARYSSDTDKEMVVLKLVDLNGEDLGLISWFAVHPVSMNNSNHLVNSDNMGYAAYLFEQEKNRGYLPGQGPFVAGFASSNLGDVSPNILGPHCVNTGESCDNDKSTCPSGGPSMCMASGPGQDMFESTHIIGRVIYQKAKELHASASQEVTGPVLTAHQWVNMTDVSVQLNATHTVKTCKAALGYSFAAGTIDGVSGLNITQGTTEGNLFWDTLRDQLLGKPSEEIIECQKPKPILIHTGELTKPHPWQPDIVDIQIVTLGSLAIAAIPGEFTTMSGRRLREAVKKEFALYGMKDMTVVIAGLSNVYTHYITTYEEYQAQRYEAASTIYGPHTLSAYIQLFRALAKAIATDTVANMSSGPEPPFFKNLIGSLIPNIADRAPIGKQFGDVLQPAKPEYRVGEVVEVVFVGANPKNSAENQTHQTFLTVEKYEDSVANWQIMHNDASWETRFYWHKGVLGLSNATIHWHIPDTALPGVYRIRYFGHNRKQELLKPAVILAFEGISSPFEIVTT
Put plainly: lectin blot with HRP-labeled PNA lectin after immunoprecipitation from HEK293 lysate. On the procedure: CDase was immunoprecipitated from the cell lysate of HEK293 cells prepared in Example 2, in which Δmucin or wild-type CDase was expressed, by using an anti-CDase antibody. A 100-fold dilution of anti-CDase was coupled with 10 μl of protein A-agarose (trade name, manufactured by SANTA CRUZ) in 100 μl of a reaction buffer (10 mM Tris-HCl, pH 7.5, containing 150 mM NaCl, 1% (v/v) Tritonm X-100 and 0.1% (w/v) BSA) at 4° C. for 2 hours. The product obtained was washed five times with the above reaction buffer. Thereafter, this product was mixed with a CDase sample, obtained by previously heating at 100° C. for 5 minutes in SDS sample buffer [20 mM Tris-HCl, pH 7.5, containing 1% (w/v) SDS and 1% (v/v) 2-mercaptoethanol], and incubated at 4° C. for 18 hours with gentle stirring. Subsequently, the immunoprecipitate was sedimented by centrifugation, washed five times with the above reaction buffer, suspended in 20 μl of the SDS sample buffer, and heated at 100° C. for 5 minutes. The resulting product was subjected to SDS-PAGE and Western blotting as described in Example 2. The PVDF membrane was stained with an anti-Myc antibody or an HRP-labeled PNA lectin. PNA (peanut agglutinin) lectin is a lectin capable of specifically recognizing and binding to the Galβ1,3GalNAc sequence of O-glycan.

T1 sequence (Q9JHE3 75-756 limits assumed): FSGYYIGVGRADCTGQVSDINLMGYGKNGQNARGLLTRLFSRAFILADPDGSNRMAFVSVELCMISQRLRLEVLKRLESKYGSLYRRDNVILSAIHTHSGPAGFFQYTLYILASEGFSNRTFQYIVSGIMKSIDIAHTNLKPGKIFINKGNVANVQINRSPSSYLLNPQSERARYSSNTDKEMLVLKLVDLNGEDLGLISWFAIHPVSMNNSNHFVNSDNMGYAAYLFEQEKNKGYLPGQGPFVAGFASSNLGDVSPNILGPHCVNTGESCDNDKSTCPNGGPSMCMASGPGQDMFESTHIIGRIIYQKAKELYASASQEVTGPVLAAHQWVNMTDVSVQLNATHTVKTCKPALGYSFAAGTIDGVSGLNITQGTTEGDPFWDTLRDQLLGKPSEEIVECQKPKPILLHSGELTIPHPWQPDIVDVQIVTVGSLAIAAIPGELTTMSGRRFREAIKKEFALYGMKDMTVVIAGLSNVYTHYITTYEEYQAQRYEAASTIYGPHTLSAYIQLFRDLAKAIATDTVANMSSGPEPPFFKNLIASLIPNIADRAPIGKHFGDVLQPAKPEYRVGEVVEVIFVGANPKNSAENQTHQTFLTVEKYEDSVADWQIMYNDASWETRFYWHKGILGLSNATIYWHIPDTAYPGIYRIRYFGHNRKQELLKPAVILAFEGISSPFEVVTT

B1: HRP-labeled PNA lectin (peanut agglutinin) (other, UniProt P02872 24-259, looked up)
chain: AETVSFNFNSFSEGNPAINFQGDVTVLSNGNIQLTNLNKVNSVGRVLYAMPVRIWSSATGNVASFLTSFSFEMKDIKDYDPADGIIFFIAPEDTQIPAGSIGGGTLGVSDTKGAGHFVGVEFDTYSNSEYNDPPTDHVGIDVNSVDSVKTVPWNSVSGAVVKVTVIYDSSTKTLSVAVTNDNGDITTIAQVVDLKAKLPERVKFGFSASGSLGGRQIHLIRSWSFTSTLITTTRRS
modifications: HRP-labeled
notes: Lectin used as a blotting reagent; also called peanut lectin
In the case of B1, the binding result in experiment [1] and in experiment [2] was “no binding” throughout.

The values above are taken from US20040053296A1 (TAKARA BIO, published 2004).
